Experimental data reported in patent US20190031748A1.

B1: CA11 Fab (Fab, V domains shown)
VH: EVQLQQSGPELVKPGASVKMSCKASGYTFTRSVMHWVKQKPGQGLEWIGYINPYNDGTKYNEKFKGKATLTSDKSSSTAYMELSSLTSEDSAVYYCAKSGNDGYWGQGTTLTVSS
VL: EIVLTQSPTTMAASPGEKITITCSASSSISSIYLHWYQQKPGFSPKVLIYRAKNLASGVPARFSGSGSGTSYSLTIGTMEAEDVATYYCQQGSTIPFTFGSGTKLEIK
B2: CA11 antibody (mouse IgG1/kappa) (antibody, V domains shown)
VH: EVQLQQSGPELVKPGASVKMSCKASGYTFTRSVMHWVKQKPGQGLEWIGYINPYNDGTKYNEKFKGKATLTSDKSSSTAYMELSSLTSEDSAVYYCAKSGNDGYWGQGTTLTVSS
VL: EIVLTQSPTTMAASPGEKITITCSASSSISSIYLHWYQQKPGFSPKVLIYRAKNLASGVPARFSGSGSGTSYSLTIGTMEAEDVATYYCQQGSTIPFTFGSGTKLEIKR

Experiments:
[1] = biological target: N-terminal biotin labelled human CGRP (Abgent Custom Synthesized Peptide #355061532) (human) (UniProt P06881); assay: ELISA; Fab captured on anti-human kappa; N-terminal biotin CGRP at 6.667 nM; 2 h dissociation step; neutravidin-AP detection
[2] = biological target: N-terminal biotin labelled human CGRP (Abgent Custom Synthesized Peptide #355061532) (human) (UniProt P06881); assay: ELISA; Fab captured on anti-human kappa; N-terminal biotin CGRP at 0.027 nM; 2 h dissociation step; neutravidin-AP detection
[3] = biological target: N-terminal biotin labelled human CGRP (Abgent Custom Synthesized Peptide #355061532) (human) (UniProt P06881); assay: ELISA; Fab captured on anti-human kappa; N-terminal biotin CGRP at 0.082 nM; 2 h dissociation step; neutravidin-AP detection
[4] = biological target: N-terminal biotin labelled human CGRP (Abgent Custom Synthesized Peptide #355061532) (human) (UniProt P06881); assay: ELISA; Fab captured on anti-human kappa; N-terminal biotin CGRP at 0.741 nM; 2 h dissociation step; neutravidin-AP detection
[5] = biological target: N-terminal biotin labelled human CGRP (Abgent Custom Synthesized Peptide #355061532) (human) (UniProt P06881); assay: ELISA; Fab captured on anti-human kappa; N-terminal biotin CGRP at 20 nM; 2 h dissociation step; neutravidin-AP detection
[6] = biological target: N-terminal biotin labelled human CGRP (Abgent Custom Synthesized Peptide #355061532) (human) (UniProt P06881); assay: ELISA; Fab captured on anti-human kappa; N-terminal biotin CGRP at 0.247 nM; 2 h dissociation step; neutravidin-AP detection
[7] = biological target: N-terminal biotin labelled human CGRP (Abgent Custom Synthesized Peptide #355061532) (human) (UniProt P06881); assay: ELISA; Fab captured on anti-human kappa; N-terminal biotin CGRP at 0.009 nM; 2 h dissociation step; neutravidin-AP detection
[8] = biological target: N-terminal biotin labelled human CGRP (Abgent Custom Synthesized Peptide #355061532) (human) (UniProt P06881); assay: ELISA; Fab captured on anti-human kappa; N-terminal biotin CGRP at 2.222 nM; 2 h dissociation step; neutravidin-AP detection
[9] = biological target: human CGRP (human) (UniProt P06881); assay: Quanterix Simoa sandwich assay; Antibody II beads capture, biotinylated CA11 detection; CGRP at 16.67 pg/mL
[10] = biological target: human CGRP (human) (UniProt P06881); assay: Quanterix Simoa sandwich assay; Antibody II beads capture, biotinylated CA11 detection; CGRP at 0.0076 pg/mL
[11] = biological target: human CGRP (human) (UniProt P06881); assay: Quanterix Simoa sandwich assay; Antibody II beads capture, biotinylated CA11 detection; CGRP at 0.62 pg/mL
[12] = biological target: human CGRP (human) (UniProt P06881); assay: Quanterix Simoa sandwich assay; Antibody II beads capture, biotinylated CA11 detection; CGRP at 0.02 pg/mL
[13] = biological target: human CGRP (human) (UniProt P06881); assay: Quanterix Simoa sandwich assay; Antibody II beads capture, biotinylated CA11 detection; CGRP at 1.85 pg/mL
[14] = biological target: human CGRP (human) (UniProt P06881); assay: Quanterix Simoa sandwich assay; Antibody II beads capture, biotinylated CA11 detection; CGRP at 0.21 pg/mL
[15] = biological target: human CGRP (human) (UniProt P06881); assay: Quanterix Simoa sandwich assay; Antibody II beads capture, biotinylated CA11 detection; CGRP at 50 pg/mL
[16] = biological target: human CGRP (human) (UniProt P06881); assay: Quanterix Simoa sandwich assay; Antibody II beads capture, biotinylated CA11 detection; CGRP at 0.07 pg/mL
[17] = biological target: human CGRP (human) (UniProt P06881); assay: Quanterix Simoa sandwich assay; Antibody II beads capture, biotinylated CA11 detection; CGRP at 5.56 pg/mL

| Binder | A560 [1] [A560] | A560 [2] [A560] | A560 [3] [A560] | A560 [4] [A560] | A560 [5] [A560] | A560 [6] [A560] | A560 [7] [A560] | A560 [8] [A560] | Average AEB (AEB (average enzyme per bead)) [9] | Average AEB (AEB (average enzyme per bead)) [10] | Average AEB (AEB (average enzyme per bead)) [11] | Average AEB (AEB (average enzyme per bead)) [12] | Average AEB (AEB (average enzyme per bead)) [13] | Average AEB (AEB (average enzyme per bead)) [14] | Average AEB (AEB (average enzyme per bead)) [15] | Average AEB (AEB (average enzyme per bead)) [16] | Average AEB (AEB (average enzyme per bead)) [17] |
| --- | --- | --- | --- | --- | --- | --- | --- | --- | --- | --- | --- | --- | --- | --- | --- | --- | --- |
| B1 | 1.03 | 0.063 | 0.091 | 0.356 | 1.05 | 0.165 | 0.082 | 0.688 | – | – | – | – | – | – | – | – | – |
| B2 | – | – | – | – | – | – | – | – | 1.18 | 0.0079 | 0.06 | 0.0075 | 0.13 | 0.02 | 2.99 | 0.011 | 0.42 |
